Source: article PMC8472270

What was measured:
[1] = molecular target: Exendin-4 (Heloderma suspectum) (UniProt P26349); assay: static and dynamic light scattering (SLS/DLS); peptide concentration series in PBS, pH 7.4, 23 °C; scattering angle 90°; relative molecular mass and Stokes radius; monomer to oligomer
Exendin-4_F22R [2] = assay: concentration-dependent Stokes radius of self-association (method not named in legend); settings: parent: est. 2.3; read off a plot
Exendin-4_F22R [3] = assay: concentration-dependent relative molecular mass of self-association (method not named in legend); settings: parent: est. 3.2; read off a plot

Substance | stoichiometry N [1] | other: Stokes radius RS (Exendin-4_F22R [2]) [nm] | other: relative molecular mass Mrel (Exendin-4_F22R [3])
Exendin-4 (from UniProt P26349 48-87) (peptide) | 3 | – | –
Exendin-4 (from UniProt P26349) F22R | – | 1.6 | 0.95
